Assay results published in the supplement of paper PMC12764529.
± gives the half width of the 95% confidence interval.

Columns and labels:
[1] = folding stability dG unfold (combined trypsin and chymotrypsin); higher = more stable
Method in brief: (§1)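 Unfolding free energy was derived, per protease or combined, by relating Bayesian-fitted K50 values from sequencing counts to a sequence-predicted unfolded-state K50 and a shared folded-state K50. The underlying digests exposed cysteine-free mini-proteins under 80 residues, in a PA-tagged cDNA display construct, to trypsin and chymotrypsin at 11 threefold-diluted concentrations and to a no-protease condition. A filter kept only designs with AlphaFold2 dimer inter-PAE above 15.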

[2] = folding stability dG unfold from chymotrypsin proteolysis; higher = more stable
Method in brief: as §1

[3] = folding stability dG unfold from trypsin proteolysis; higher = more stable
Method in brief: as §1

Row | Sequence | folding stability dG unfold [1] | folding stability dG unfold [2] | folding stability dG unfold [3]
1 | SAGGSAPPPPETVRIRVRITLPDGRTLEIEIEVSREEAERLAKELADRLRELGYEVKVEIVEVEEVSAGGSA [r2_274_TrROS_Hall] | 4.51 ± 0.32 kcal/mol | 3.14 ± 0.28 kcal/mol | 4.34 ± 0.31 kcal/mol
2 | SAGGSAPPQTIPIIIKDPNGKVRIEPVQFDPGPGNFNWDIEHPNGEKHTITFTGPPDDLPPGDYIKSAGGSA [r15_596_TrROS] | 0.784 ± 0.17 kcal/mol | 1.37 ± 0.068 kcal/mol | -0.575 ± 0.13 kcal/mol
3 | SAGGSAPSSELLEEEFETEDKSNNTTIKIYKVPGTGDYLIETTTPSGKKTKLTLGPLSESEAKGLISAGGSA [r15_295_JUSTAS] | 0.32 ± 0.059 kcal/mol | 0.32 ± 0.097 kcal/mol | 0.0974 ± 0.023 kcal/mol
4 | SAGGSAPVEVRVSVEVLPDGTLRITVEFTLPNGEKLSVEFTIPLAPVPVVDLTSPEALFPALSLLSSAGGSA [r15_1018_TrMRF] | 2.42 ± 0.17 kcal/mol | 2.41 ± 0.069 kcal/mol | 2.43 ± 0.07 kcal/mol
5 | SAGGSAPVKLVVVYDEKTGEYRILAETPEGPVVFPFPRELFENIPLEDIAKLLNLEITEAVIVPNPSAGGSA [r15_801_TrMRF] | 3.38 ± 0.13 kcal/mol | 3.67 ± 0.13 kcal/mol | 2.63 ± 0.086 kcal/mol
6 | SAGGSAPVVRVEIVVLGTGEVRTLTLEEAKRFLEAHPDKIDRVLVRVEVFEPDASTSDDVDPDGVPSAGGSA [r15_99_TrMRF] | 2.04 ± 0.07 kcal/mol | 1.97 ± 0.021 kcal/mol | 2.03 ± 0.034 kcal/mol
7 | SAGGSARIEPVGDYLVIEIPFRYPDGMEWYIEIVINPEEGKIPVDQYPPGDGEPVGEKTLPADEVKSAGGSA [r15_671_TrROS] | 1.52 ± 0.23 kcal/mol | 2.27 ± 0.11 kcal/mol | 0.507 ± 0.14 kcal/mol
8 | SAGGSARIKIDPPGKIKVYYNGQPFTIKPGVELDIQRTDDMIVLRIRMRDPDGKPVGEFPFMFRIKSAGGSA [r15_424_TrROS] | 2.41 ± 0.24 kcal/mol | 2.59 ± 0.23 kcal/mol | 2.13 ± 0.073 kcal/mol
9 | SAGGSARPELVEYRVRIGDVEVRVVLPEGLEELLRRIPDVEVEPVRRFEAPPPPVVLERSELGDFASAGGSA [r15_443_TrMRF] | 1.71 ± 0.14 kcal/mol | 1.77 ± 0.11 kcal/mol | 1.56 ± 0.051 kcal/mol
10 | SAGGSARPLYIKVQIRNPPNGKKKTIEIPIENMPPGDPEYYKEMARSIAEELQEQNGMEIEGIEIYSAGGSA [r15_1013_TrROS] | 0.566 ± 0.19 kcal/mol | 0.023 ± 0.27 kcal/mol | 0.731 ± 0.06 kcal/mol
11 | SAGGSASEELVEEIANIIKPALEEEGIEVERVEATAVTLPDGTVVIPVRVRTKDGPEVLEFNIVILSAGGSA [r15_232_TrMRF] | 1.19 ± 0.038 kcal/mol | 1.235 ± 0.012 kcal/mol | 1.1 ± 0.027 kcal/mol
12 | SAGGSASIEELLKEIIDNLKPGEKYKITIEVDGEEKTFTFTNKNGEKIEIVVKDGKIVSIKIEKLPSAGGSA [r15_175_TrROS_Hall] | 3.97 ± 0.3 kcal/mol | 4.21 ± 0.12 kcal/mol | 2.5 ± 0.4 kcal/mol
13 | SAGGSASIEIPFNGHPYKIEIDDVEPPDEQYRAKAEIRFPGNGKKIPVEGDMPKSDAEDAIKEAIRSAGGSA [r15_944_TrROS] | 0.362 ± 0.25 kcal/mol | 0.49 ± 0.16 kcal/mol | -0.527 ± 0.19 kcal/mol
14 | SAGGSASIPEKIAEELKEKYGVTEIKILSVDPNGIIKVELKSIEKNEGKLIEKTYKVTVKVPKNLLSAGGSA [r15_646_JUSTAS] | 2.14 ± 0.078 kcal/mol | 2.23 ± 0.034 kcal/mol | 1.86 ± 0.071 kcal/mol
15 | SAGGSASLTVVYPGGETRTFDVSAVSPEFLRAHPDVTVTLPGGEERRLAGDTELSPAGPHTITVPASAGGSA [r15_733_JUSTAS] | 2.06 ± 0.088 kcal/mol | 1.8 ± 0.083 kcal/mol | 2.39 ± 0.11 kcal/mol
16 | SAGGSASMIVKEVKDKVDPAGSVPPDAVIRLETKVDPATGVWTIKVYTEEGKEIGESTVFVKPGILSAGGSA [r15_134_JUSTAS] | 0.602 ± 0.069 kcal/mol | 0.629 ± 0.083 kcal/mol | 0.447 ± 0.054 kcal/mol
17 | SAGGSASMTLYRDEEGKPLFHHSPEPTSSVPRVVPVVNEEGDEKLEIEIPADTPLEELEAIIEELLSAGGSA [r15_309_JUSTAS] | -0.0861 ± 0.096 kcal/mol | -0.33 ± 0.18 kcal/mol | 0.0733 ± 0.04 kcal/mol
18 | SAGGSASPFYIAYDPNKPNVATIYPSSQPNLSGSNGATVTPLTDEAELAALKAELKAAGITTITFSSAGGSA [r15_1004_JUSTAS] | 0.65 ± 0.11 kcal/mol | 0.355 ± 0.22 kcal/mol | 0.834 ± 0.054 kcal/mol
19 | SAGGSASPSEVRTITATLPGGVVREFEVKMPPGTTVYIPEEGKTITVPPDSSLPLPPDVSVEVRLESAGGSA [r15_152_JUSTAS] | -0.148 ± 0.058 kcal/mol | -0.106 ± 0.021 kcal/mol | -0.353 ± 0.017 kcal/mol
20 | SAGGSASPVFVATRISLPGGNASVDTSRYDPSSGTLTITVTLPDGTTTTITLTGPVSEYPADRLLLSAGGSA [r15_596_JUSTAS] | 1.13 ± 0.061 kcal/mol | 1.16 ± 0.051 kcal/mol | 1.04 ± 0.022 kcal/mol
21 | SAGGSASPVTVTYTDPNSTVLESVYTPSSGIVYVKYKVGDKWYLVTVKLDPSGSSVSSVTKEPLPPSAGGSA [r15_297_JUSTAS] | 1.95 ± 0.043 kcal/mol | 2.13 ± 0.041 kcal/mol | 1.55 ± 0.04 kcal/mol

Row | Sequence | folding stability dG unfold [1] | folding stability dG unfold [2] | folding stability dG unfold [3]
22 | SAGGSASSPGTPVKLNVNAIITKKLPDGTITTEPGRTLDLPEEEAIEYLKSLPSSYSVEIESIVVESAGGSA [r15_833_JUSTAS] | -0.115 ± 0.087 kcal/mol | 0.0371 ± 0.15 kcal/mol | -0.347 ± 0.15 kcal/mol
23 | SAGGSASSSEKIRITYLKDGVEYEVTFPLVELVTDPNTGVTTVTLPPEFKELFPGPITVTEVEIPPSAGGSA [r15_710_JUSTAS] | 1.99 ± 0.032 kcal/mol | 2.267 ± 0.019 kcal/mol | 1.42 ± 0.035 kcal/mol
24 | SAGGSASSVPVELEYETPGDPSSSSYTLEPVDLPPELASRIVEVTAKVEKEGGKLKITATVTLTDLSAGGSA [r15_321_JUSTAS] | 0.48 ± 0.2 kcal/mol | 0.137 ± 0.25 kcal/mol | 0.723 ± 0.12 kcal/mol
25 | SAGGSASTLRLIVIPPSYPNMTIEEAIKNIKIKRPDGKEFEVEVLEVIPVKDYRLLLVRIKDPIPYSAGGSA [r15_331_TrMRF] | 2.43 ± 0.14 kcal/mol | 2.46 ± 0.071 kcal/mol | 2.32 ± 0.058 kcal/mol
26 | SAGGSASTPDGKTKTYTNTNPGATEEEVKPIAEEIAKEIAEKLGLDLSEIGISVSYDPNTGTISPLIGSAGG [r13_913_JUSTAS] | -0.105 ± 0.59 kcal/mol | -0.321 ± 0.49 kcal/mol | -0.00514 ± 0.061 kcal/mol
27 | SAGGSASVKIEVTVSPEQPDLTEEEAKAALTLTLPDGRPVKVEVLEVKPVPGSTVLLVEVEENVLLSAGGSA [r15_331_JUSTAS] | 1.13 ± 0.079 kcal/mol | 0.487 ± 0.073 kcal/mol | 1.64 ± 0.061 kcal/mol
28 | SAGGSASVSPVTLPLEVAPDEEVEGTLTLTLPSGPTVTYTAEITEVSPDGTANPVVTIDDTPVVVESAGGSA [r15_844_JUSTAS] | 0.965 ± 0.045 kcal/mol | 0.392 ± 0.091 kcal/mol | 1.39 ± 0.053 kcal/mol
29 | SAGGSATAEELAEEIAREIAEAFPAEVVRVEVEEVDEDRVVFRMEVRVPLPDGSTVRAPFTVVVPASAGGSA [r15_276_TrMRF] | 0.693 ± 0.1 kcal/mol | 0.778 ± 0.14 kcal/mol | 0.572 ± 0.042 kcal/mol
30 | SAGGSATITIEVNGKPITIEFDKKNKTYTITLPNGKKVEVKVVDGELYITFANGEKRKISLKELKPSAGGSA [r15_448_TrROS_Hall] | 3.81 ± 0.17 kcal/mol | 4.34 ± 0.15 kcal/mol | 2.68 ± 0.12 kcal/mol
31 | SAGGSATVEEIAKYFAEQHPGMEPKSVKLDYERNPEEGVYRIKVNITMRFDDNKKHKMPVEIQFPVSAGGSA [r15_266_TrROS] | 0.433 ± 0.085 kcal/mol | 0.358 ± 0.14 kcal/mol | 0.406 ± 0.059 kcal/mol
32 | SAGGSAVIVIETRADDPRLLEAIKKAREEGKPVVVRFPDGKALVFYPEGPVEEVDSPEQLKEAGFGSAGGSA [r15_94_TrMRF] | 1.94 ± 0.031 kcal/mol | 1.716 ± 0.011 kcal/mol | 2.19 ± 0.033 kcal/mol
33 | SAGGSAVPAGTTFELRYPEDEGSLTLTYDPSTNTVTITDGDKTTTYSSTSLEEVLKELGAELASRLSAGGSA [r15_500_JUSTAS] | 1.22 ± 0.09 kcal/mol | 1.35 ± 0.094 kcal/mol | 0.998 ± 0.041 kcal/mol
34 | SAGGSAVPKLPTGVEVEPLAVIDPETASPEEIRALLAEHPGPLLVRPSSTGEWRVVPAEELLALLGSAGGSA [r15_904_JUSTAS] | 1.1 ± 0.071 kcal/mol | 1.19 ± 0.076 kcal/mol | 0.984 ± 0.034 kcal/mol
35 | SAGGSAWPAKEIAKELNPGFPVDVEPEPVPNKDGKDMVTIEARFPNGWKIQIVFRNGKPEAIQWQKSAGGSA [r15_417_TrROS] | 1.97 ± 0.095 kcal/mol | 2.28 ± 0.11 kcal/mol | 1.47 ± 0.032 kcal/mol
36 | SAGGSDDPAKDIDLDIPVVVLEEEEARELARELDKPIIFRLPDGRLRVFYPDGREEEFPLPKPEELSAGGSA [r2_34_TrMRF] | 2.96 ± 0.039 kcal/mol | 2.65 ± 0.022 kcal/mol | 3.38 ± 0.066 kcal/mol
37 | SAGGSDEVTIDFQVKYNGQPFTVRITIERDPPDGKIEIPVEISYPNPEMREPAREIARNIVRELLNSAGGSA [r2_259_TrROS] | 1.32 ± 0.095 kcal/mol | 1.66 ± 0.17 kcal/mol | 0.873 ± 0.07 kcal/mol
38 | SAGGSDKEHDVEIKINIYVHDDGYIHIDIEVYNPGSPRPIMKFTIHIPAKDMQKKTGRPMTLEDILSAGGSA [r2_180_TrROS] | 2.38 ± 0.2 kcal/mol | 2.75 ± 0.074 kcal/mol | 1.73 ± 0.16 kcal/mol
39 | SAGGSDKVVEIPIDIPNGYTVTIRMHPDDGTARVEVSPNMPPNRVLEKIKKIFDDNGYRILPIEIVSAGGSA [r2_497_TrROS] | 1.01 ± 0.077 kcal/mol | 0.796 ± 0.053 kcal/mol | 1.2 ± 0.03 kcal/mol
40 | SAGGSDTLKKLFPGVKEIEIEVEPYWVPMPPEMAKDNPEAPGQTFPVPRVKITIKIELPRDPDGKLSAGGSA [r2_404_TrROS] | 0.772 ± 0.12 kcal/mol | 0.324 ± 0.18 kcal/mol | 1.09 ± 0.065 kcal/mol
41 | SAGGSEEERKRILEELKKKNPEKDVEVKVERKTYKVPAGTVVTLPDGTKIVAPADTTVEIYKVEIIKSAGGS [r16_357_JUSTAS] | 1.95 ± 0.2 kcal/mol | 2.14 ± 0.037 kcal/mol | 1.32 ± 0.068 kcal/mol
42 | SAGGSEFEIIEVKDGTVVIRNKKTNELITVKVKIEVKPPPPVVVKKPGEEVTVKEGKKVTVLKEGEKKSAGG [r13_322_TrROS_Hall] | 0.498 ± 0.18 kcal/mol | 0.916 ± 0.13 kcal/mol | -0.188 ± 0.18 kcal/mol
